From patent publication US20220227875A1 (UNIVERSITY OF FLORIDA RESEARCH FOUNDATION, published 2022)

What was measured:
[1] = molecular target: human thyroid-stimulating hormone receptor (TSHR) (human) (UniProt P16473); test: cell-based or functional assay
[2] = molecular target: human thyroid-stimulating hormone receptor (TSHR) (human, UniProt P16473 21-764); test: cell-based or functional assay

Molecule: thyroid-stimulating antibody M22
- cAMP levels in HEK-TSHR cells, EC50 [1]: 42.5 µg/mL

Molecule: recombinant thyroid-stimulating hormone (TSH) (ligand)
- cAMP levels in HEK-TSHR cells, EC50 [1]: 0.168 µg/mL

B1: K1-70 thyroid blocking antibody (commercially available K1-70 antibody) (antibody, V domains shown)
VH: EVQLVQSGAEVKKPGQSLKISCKASGYSLTDNWIGWVRQKPGKGLEWMGIIYPGDSDTRYSPSFQGQVTISADKSINTAYLQWSSLKASDTAIYYCVGLDWNYNPLRYWGPGTLVTVSS
VL: QSVLTQPPSVSAAPGQKVTISCSGSSSDIGSNYVSWYQQFPGTAPKLLIYDNNKRPSAIPDRFSGSKSGTSATLGITGLQTGDEADYYCGTWDSRLGIAVFGGGTQLTVLG
- inhibition of M22 (100 ng/ml)-induced cAMP in HEK-TSHR cells, IC50 [2]: 1.38 µg/mL
- inhibition of TSH (150 ng/ml)-induced cAMP in HEK-TSHR cells, IC50 [2]: 1.18 µg/mL
